What all share (format): biochemical, Ananas comosus
Substrate in series [1]: Cc1cc(=O)oc2cc(NC(=O)[C@H](CCCNC(=N)N)NC(=O)[C@H](Cc3ccccc3)NC(=O)OCc3ccccc3)ccc12
The experiment in a line: Kinetics of hydrolysis of fluorimetric substrates by ananain. The note with it: other: ananain, 40° C., pH 6.8 buffer, 0.007% Brij 35, substrate 2 to 100 μM, spread = standard deviation. The procedure: (§1) used for this example was obtained by the method described in Example 1: the bromelain used was as in Example 4. For the determination of kinetic parameters Km (the Michaelis Constant) and kcat (the turnover number) of hydrolysis of Z-Phe-Arg-NHMec and Z-Arg-Arg-NHMec, measurements of the initial rates of reaction were made in 0.007% Brij 35 at 40° C. The enzymes (1×10^-11 M to 1×10^-9 M final concentration of activatable enzyme as determined by active-site titration) were activated in 0.75 ml of 4-fold concentrated buffer in a fluorimetric cuvette at 40° C. for 2 min, to which pre-warmed 0.01% Brij was added, followed by substrate to a final volume of 3.0 ml. Continuous rate assays were carried out using a temperature-controlled cell, with stirring, in the fluorimeter ([…]), standardized so that 1000 arbitrary units corresponded to 0.2 μM coumarin (i.e. at most, 10% substrate hydrolysis). Substrate concentration(s) used were in the range 2 to 100 μM. Visual inspection of the data was performed using the direct linear plot and plots of s/v against s (v being the rate of product formation). (Henderson, P. J. F., Techniques in Protein and Enzyme Biochemistry, B113, 1-43, 1978). Values of Km and Vmax (the maximum rate of product formation at a given enzyme concentration) were calculated by the method of Wilkinson, G. N., Biochem. J., 80, 324-332, 1961.

Substrate in series [2]: Cc1cc(=O)oc2cc(NC(=O)[C@H](CCCNC(=N)N)NC(=O)[C@H](CCCNC(=N)N)NC(=O)OCc3ccccc3)ccc12
The series is described as above. The note with it: other: ananain, 40° C., pH 6.8 buffer, 0.007% Brij 35, substrate 2 to 100 μM, spread = standard deviation. The procedure: as §1

Substrate in series [3]: Cc1cc(=O)oc2cc(NC(=O)[C@H](CCCNC(=N)N)NC(=O)[C@H](Cc3ccccc3)NC(=O)OCc3ccccc3)ccc12
The experiment in a line: Kinetics of hydrolysis of fluorimetric substrates by bromelain. The note with it: other: bromelain, 40° C., pH 6.8 buffer, 0.007% Brij 35, substrate 2 to 100 μM, spread = standard deviation. The method, then:
(§2) The enzymes used were affinity purified ananain and comosain (Examples 1 and 2) and bromelain, which was obtained from chromatography-purified Sigma bromelain (catalogue number B 5144) by affinity chromatography on a column of Sepharose-aminohexanoyl-Gly-Phe-Gly-semicarbazide, followed by dialysis into 1 mM EDTA and lyophilisation. The proteinases were standardised by E-64 titration as described in Example 8.
(§3) Ananain used for this example was obtained by the method described in Example 1: the bromelain used was as in Example 4.
as §1, with “For” for “used for this example was obtained by the method described in Example 1: the bromelain used was as in Example 4. For”

Substrate in series [4]: Cc1cc(=O)oc2cc(NC(=O)[C@H](CCCNC(=N)N)NC(=O)[C@H](CCCNC(=N)N)NC(=O)OCc3ccccc3)ccc12
Described as above. The note with it: other: bromelain, 40° C., pH 6.8 buffer, 0.007% Brij 35, substrate 2 to 100 μM, spread = standard deviation. The method, then: as §2, §3
as §1, with “For” for “used for this example was obtained by the method described in Example 1: the bromelain used was as in Example 4. For”

Km, kcat and kcat/Km data for two proteins are collected here from patent publication US5106621A, “Cysteine proteinases, production and use” (priority 1987, dated 1992).

B1: ananain, cysteine proteinase purified from pineapple (Ananas comosus) stem extract (Ananas comosus) (protein)
chain: VPQSIDWRDSGAVTSVKNQGRCGSCWAFASIATVESIYKIKRGNLVSLSEQQVLDCAVSYGCKGGWINKAYSFIISNKGVASAAIYPYKAAKGTCKTNGVPNSAYITRYTYVQRNNERNMMYAVSNQPIAAALDASGNFQHYKRGVFTGPCGTRLNHAIVIIGYGQDSSGKKFWIVRNSWGAGWGEGGYIRLARDVSSSFGLCGIAMDPLYPTLQS
notes: from tissue; host or cells: pineapple stem extract (from the earlier reading)
As for B1, in series [1], the Km is 48.3 (±4.8) μM, the kcat is recorded as 7.07 (±0.3) s^-1 and the kcat/Km is listed as 0.146 (±0.02) s^-1 · μM^-1. In series [2], the Km is recorded as 44.5 (±9.0) μM, the kcat is 0.323 (±0.03) s^-1 and the kcat/Km is 0.007 (±0.002) s^-1 · μM^-1.

B2: bromelain (stem bromelain, EC 3.4.22.4), affinity purified from Sigma bromelain, pineapple (Ananas comosus) stem (Ananas comosus) (protein)
chain: AVPQSIDWRDYGAVTSVKNQNPCGACWAFAAIATVESIYKIKKGILEPLSEQQVLDCAKGYGCKGGWEFRAFEFIISNKGVASGAIYPYKAAKGTCKTDGVPNSAYITGYARVPRNNESSMMYAVSKQPITVAVDANANFQYYKSGVFNGPCGTSLNHAVTAIGYGQDSIIYPKKWGAKWGEAGYIRMARDVSSSSGICGIAIDPLYPTLEE
notes: purchased Sigma B 5144
Turning to B2, in series [3], the Km was 83.1 (±14.1) μM, the kcat was 0.14 (±0.01) s^-1 and the kcat/Km was 0.0016 (±0.0003) s^-1 · μM^-1. Moreover, in series [4], the Km is reported as 15.4 (±2.8) μM, the kcat is 27.3 (±1.9) s^-1 and the kcat/Km was 1.77 (±0.37) s^-1 · μM^-1.
